Measurements: patent US8741844B2, “Use of mutated antithrombins for treating or preventing coagulation disorders” (Universite Paris-Sud XI, priority 2007, dated 2014)
Positions count from the first letter of the chain named.

B1: AT-ΔR393-S394: human antithrombin with deletion of the amino acids at positions 393 and 394 (protein, listed as Homo sapiens)
chain: HGSPVDICTAKPRDIPMNPMCIYRSPEKKATEDEGSEQKIPEATNRRVWELSKANSRFATTFYQHLADSKNDNDNIFLSPLSISTAFAMTKLGACNDTLQQLMEVFKFDTISEKTSDQIHFFFAKLNCRLYRKANKSSKLVSANRLFGDKSLTFNETYQDISELVYGAKLQPLDFKENAEQSRAAINKWVSNKTEGRITDVIPSEAINELTVLVLVNTIYFKGLWKSKFSPENTRKELFYKADGESCSASMMYQEGKFRYRRVAEGTQVLELPFKGDDITMVLILPKPEKSLAKVEKELTPEVLQEWLDELEEMMLVVHMPRFRIEDGFSLKEQLQDMGLVDLFSPEKSKLPGIVAEGRDDLYVSDAFHKAFLEVNEEGSEAAASTAVVIAGLNPNRVTFKANRPFLVFIREVPLNTIIFMGRVANPCVK
B2: AT-ΔR393: human antithrombin with deletion of the amino acid at position 393 (protein, listed as Homo sapiens)
chain: HGSPVDICTAKPRDIPMNPMCIYRSPEKKATEDEGSEQKIPEATNRRVWELSKANSRFATTFYQHLADSKNDNDNIFLSPLSISTAFAMTKLGACNDTLQQLMEVFKFDTISEKTSDQIHFFFAKLNCRLYRKANKSSKLVSANRLFGDKSLTFNETYQDISELVYGAKLQPLDFKENAEQSRAAINKWVSNKTEGRITDVIPSEAINELTVLVLVNTIYFKGLWKSKFSPENTRKELFYKADGESCSASMMYQEGKFRYRRVAEGTQVLELPFKGDDITMVLILPKPEKSLAKVEKELTPEVLQEWLDELEEMMLVVHMPRFRIEDGFSLKEQLQDMGLVDLFSPEKSKLPGIVAEGRDDLYVSDAFHKAFLEVNEEGSEAAASTAVVIAGSLNPNRVTFKANRPFLVFIREVPLNTIIFMGRVANPCVK
B3: AT-ΔS394: human antithrombin with deletion of the amino acid at position 394 (protein, listed as Homo sapiens)
chain: B2 chain with S393R

Legend:
[1] = tested on: plasma anti FXa activity in mice treated with pentasaccharide; assay: Murine model: mutated antithrombins as antidotes of fondaparinux, plasma anti FXa activity; type: in vivo, mouse; conditions: injection of mutated antithrombin after fondaparinux
Method: The efficiency of the mutated antithrombins AT-R393H(SEQ ID NO: 4), AT-Pro394 (SEQ ID NO: 6), AT-ΔR393-S394 (SEQ ID NO: 18), AT-ΔR393 (SEQ ID NO: 8), AT-ΔS394 (SEQ ID NO: 10), AT-N135Q-R393H(SEQ ID NO: 14), AT-N135Q-Pro394 (SEQ ID NO: 16), AT-N135Q-ΔR393-S394 (SEQ ID NO: 24), AT-N135Q-ΔR393 (SEQ ID NO: 20), AT-N135Q-A5394 (SEQ ID NO: 22) as antidotes is evaluated in a murine model.
The different drugs to be tested (fondaparinux, low molecular weight heparin, full length heparin and the mutated antithrombins) are administrated by intra-venous injection in the caudal vein to avoid the variability encountered when administration is performed subcutaneously. However, Heparin derivatives (fondaparinux, low molecular weight heparin and full length heparin) could also be administrated subcutaneously.
The blood is collected by punction in cave vein into tubes containing 0.105 mol/L trisodium citrate (1:10). Platelet-poor plasma is obtained by centrifugation at 2300 g for 10 minutes at 12° C. and stored at −80° C. until use.
The following elements are determined: • the doses of fondaparinux inducing an overdose in mice, • the mutated antithrombins time course, and in particular the time required to observe a maximal biological effect, • the minimal doses of mutated antithrombins necessary to neutralize fondaparinux.
For each of these experiments, 4 groups of 5 mice each are used: • In the first group mice receive fondaparinux vehicle and then antidote (mutated antithrombin) vehicle. • In the second group, mice receive fondaparinux and then antidote vehicle • In the third group, mice receive fondaparinux vehicle and then antidote • In the last group, mice receive fondaparinux and then antidote
Anti FXa activity measurements is performed as previously described using a Stachrom Heparin® kit on a STA (Stago, France) or a Rotachrom Heparin® kit with procedure adapted for measurement in microplate reader (Dynatech MR 5000). A calibration curve with pentasaccharide is performed, allowing the expression of the results in nmol/ml (or in mg/L) of plasma.
Thus, the antidote (mutated antithrombins) is administered intravenously, 5 min after the intra-venous injection of the fondaparinux, and 5, 15 or 30 min after the subcutaneous injection of the fondaparinux.
The mutated antithrombin time course is studied by measuring the plasma anti-Xa activity 5 min, 10 min, 20 min and 40 min after the antidote administration.
Once the time of action determined, a dose response curve is performed in vivo to determine the dose of antidote necessary to obtain a decrease in Fondaparinux plasma concentration within the therapeutic range around 1.2 nmol/ml (or 2 mg/L), or around 0.7 nmol/ml (or 1.2 mg/L).

[2] = biological target: T1, factor Xa (Homo sapiens, UniProt P00742); assay: Kinetic assay of factor Xa inhibition by antithrombins in a purified system (chromogenic substrate, continuous or discontinuous); type: biochemical; conditions: with or without pentasaccharide; compared with plasma / wild type antithrombin
T1 construct: purchased Kordia
Method: Briefly, factor Xa is incubated with an excess of tested antithrombins (corresponding to plasma antithrombin, or wild type antithrombin or mutated antithrombins and varying in each assay realized) in the presence or absence of pentasaccharide (Fondaparinux sodique, Arixtra®, GlaxoSmithKline) and the factor Xa residual activity is measured as a function of time. The pentasaccharide is added in excess in the reaction media so that every tested antithrombin is bound to the pentasaccharide. In the absence of pentasaccharide, polybrene is added in order to neutralize any sulfated glycosaminoglycan that may be present in the reaction media. The residual factor Xa activity is measured as the increase in absorbance at 405 nm resulting from cleavage of the chromogenic substrate (S2765 or S2222, Chromogenix) using a microplate reader (Dynatech MR 5000). The analysis of the data is performed using the GraphPad Prism version 3 software. Absorbance recording is continuous or discontinuous according to the expected inhibition rate constant (kon).
The inhibition rate constant (kon) is the second order rate constant given in M^−1·s^−1 which define the velocity of stable complex formation between protease and antithrombin (higher is the kon value, faster will the complex be established).
When the expected kon is lower than 10^4 M^−1·s^−1 the discontinuous method is used. Factor Xa (0.2 to 1 μM, or 0.1 to 1 μM) is incubated with tested antithrombins (0.2 to 10 μM, or 1 to 10 μM) in the presence of pentasaccharide (10 to 100 μM) or polybrene (100 μg/ml) in a final volume of 10 μl for 10 seconds to 5 hours, or 10 seconds to 24 hours. At the end of this incubation period, 190 μl of kinetic buffer containing 200 μM substrate is added and absorbance at 405 nm is recorded.
The kinetic rate constant (k) is estimated by fitting the substrate hydrolysis initial rate curve to equation (1) using non-linear regression with v0 and v∞ being the substrate hydrolysis rate at time to or too respectively. […] (1)
The inhibition rate constant (kon) is calculated from the rate constant (k) using equation (2) where AT is the tested antithrombin concentration. k=AT·kon (2)
When the expected kon is higher than 10^4 M^−1·s^−1′ the continuous method is used. The tested antithrombin (0.01 to 1 μM, or 0.1 to 1 μM) is incubated with the substrate (200 μM) in the presence of pentasaccharide or polybrene in a final volume of 100 μL, or 190 μl, and the reaction is started by addition of 100 μL, or 10 μL, of factor Xa (2 nM or 10 nM). The rate constant (k) is obtained by fitting the substrate hydrolysis curve to equation (3) or (3′) using non-linear regression analysis where A0 is the absorbance at t0, and vi and vs are respectively the initial and final rates of substrate hydrolysis in the absence of tested antithrombin. A405=A0+vi·(1−exp(−k·t))/k. (3) Equation (3′) is also used, particularly in presence of plasma. A405=A0+vs*t+(vi−vs)*(1−exp(−k·t))/k. (3′)
The inhibition rate constant (kon) is calculated from the kinetic constant (k) using equation (4) that takes into account the competitive effect of the substrate, with S being the initial substrate concentration, Km, the Michaelis constant for factor Xa-substrate interaction, AT the tested antithrombin concentration. k=(kon/(1+S/Km))·[AT] (4)
Mutated antithrombins and wild type AT inhibitory activity are measured in the same conditions and compared with plasma AT inhibitory activity.

T1 sequence (P00742 235-488 limits assumed): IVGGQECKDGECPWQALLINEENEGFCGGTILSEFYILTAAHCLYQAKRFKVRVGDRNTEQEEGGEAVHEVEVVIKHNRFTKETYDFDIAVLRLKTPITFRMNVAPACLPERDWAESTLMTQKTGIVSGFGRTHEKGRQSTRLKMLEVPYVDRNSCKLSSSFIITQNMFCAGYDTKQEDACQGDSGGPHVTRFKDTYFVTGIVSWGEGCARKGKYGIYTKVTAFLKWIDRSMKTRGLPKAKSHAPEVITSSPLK
T1 sequence (P00742 41-179 partner limits assumed): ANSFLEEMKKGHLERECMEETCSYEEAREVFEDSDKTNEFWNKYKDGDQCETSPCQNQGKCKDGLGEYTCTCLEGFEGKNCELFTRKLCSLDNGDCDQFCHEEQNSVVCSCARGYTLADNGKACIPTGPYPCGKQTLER

Row | Molecule | plasma anti FXa activity in mice treated with pentasaccharide [1] | factor Xa inhibitory activity [2]
1 | B1 | significant decrease | negligible
2 | B2 | significant decrease | negligible
3 | B3 | significant decrease | negligible
